EP2431054A2 (Human Genome Sciences, Inc., dated 2012)

T1: TACI-Fc fusion protein (Homo sapiens (Human), UniProt O14836 1-159)
T1 construct: The dimeric form was enriched by size exclusion; also called full-length TACI-Fc; soluble TACI-Fc; not shown: Fc portion from vector pC4-Fc
T1 sequence: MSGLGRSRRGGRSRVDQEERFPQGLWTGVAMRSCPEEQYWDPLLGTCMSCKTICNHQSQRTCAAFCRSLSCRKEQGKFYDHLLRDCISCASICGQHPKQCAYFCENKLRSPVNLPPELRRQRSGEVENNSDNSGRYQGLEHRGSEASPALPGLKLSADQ


How the values were obtained:
[1] = molecular target: FLAG-epitope-tagged TNF-epsilon (in conditioned medium) (human) (UniProt O75888); test: co-immunoprecipitation with M2 anti-FLAG antibody, Western detection with anti-FLAG antibody
TACI-Fc fusion protein = molecular target: T1, TACI-Fc fusion protein; test: BIAcore (SPR), TACI-Fc amine-coupled to CM5 chip, TNF-epsilon as analyte

percent of the TNF-epsilon present in the conditioned medium found in the immunoprecipitated TACI-Fc-TNF-epsilon complex [1]	Kd (TACI-Fc fusion protein)	Binder
20%		TACI-Fc fusion protein (Fc fusion, not shown: a dimerising Fc or GST) MSGLGRSRRGGRSRVDQEERFPQGLWTGVAMRSCPEEQYWDPLLGTCMSCKTICNHQSQRTCAAFCRSLSCRKEQGKFYDHLLRDCISCASICGQHPKQCAYFCENKLRSPVNLPPELRRQRSGEVENNSDNSGRYQGLEHRGSEASPALPGLKLSADQ
	6 nM	TNF-epsilon, trimeric form isolated by size exclusion chromatography (ligand, This is the protein flowed over the TACI-Fc chip) AVLTQKQKNDSDVTEVMWQPALRRGRGLQAQGYGVRIQDAGVYLLYSQVLFQDVTFTMGQVVSREGQGRQETLFRCIRSMPSHPDRAYNSCYSAGVFHLHQGDILSVIIPRARAKLNLSPHGTFLGFVKL
